Here are results for one substance from paper PMC6521584, “Sucrose 6^F-phosphate phosphorylase: a novel insight in the human gut microbiome” (Microbial Genomics, 2019).

This data set deals with O=P(O)(O)OC[C@H]1O[C@@](CO)(O[C@H]2O[C@H](CO)[C@@H](O)[C@H](O)[C@H]2O)[C@@H](O)[C@@H]1O. Nature of the data set: purified protein. The data set is classed as biochemical, Mediterraneibacter gnavus. Conditions: phosphorolysis, 100 mM sodium phosphate buffer as co-substrate, pH 6.0, 40 °C, 1.0-20 mM substrate.

For orientation: Km means the concentration of substrate that gives half-maximal velocity. A word on the kcat: it is the maximal rate divided by the concentration of active sites. As usually defined, the kcat/Km is the second-order rate constant that governs catalysis at low substrate concentration. As to “RgSPP (sucrose 6^F-phosphate phosphorylase; formerly SucP) (Mediterraneibacter gnavus)”, the Km was determined as 1700 µM, the turnover number (kcat) stood at 740 s⁻¹ and the kcat/Km was 435000 M⁻¹ s⁻¹.
